Experiment [1] deals with GST-talin1 A366/368 (mouse) (UniProt P26039). The experiment is described as follows: pull-down.
Another experiment deals with T1, GST-Tiam1-PDZ4 (mouse, UniProt Q60610 765-1234).
T1 sequence: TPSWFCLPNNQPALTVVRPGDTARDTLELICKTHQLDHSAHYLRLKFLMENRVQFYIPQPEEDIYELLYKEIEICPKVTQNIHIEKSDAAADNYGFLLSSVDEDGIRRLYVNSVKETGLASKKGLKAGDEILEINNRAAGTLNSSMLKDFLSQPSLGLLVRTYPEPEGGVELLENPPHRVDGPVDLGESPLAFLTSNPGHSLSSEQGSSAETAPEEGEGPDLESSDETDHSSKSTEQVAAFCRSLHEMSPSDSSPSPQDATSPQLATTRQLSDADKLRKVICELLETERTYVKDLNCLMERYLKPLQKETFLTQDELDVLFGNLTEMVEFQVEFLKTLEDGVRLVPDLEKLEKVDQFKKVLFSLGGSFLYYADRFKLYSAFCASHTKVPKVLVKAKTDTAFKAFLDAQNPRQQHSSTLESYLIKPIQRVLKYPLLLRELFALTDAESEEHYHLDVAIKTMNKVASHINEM
The experiment can be described thus: SPR.

Regarding “Tiam1-C1199-HA (from UniProt Q60610 1-1591) (domain or fragment)”, the decrease of association relative to wild type in experiment [1] was determined as 90%.

B1: His-talin1 (1–433 aa) (domain or fragment, mouse, UniProt P26039 1-433, looked up)
chain: MVALSLKISIGNVVKTMQFEPSTMVYDACRMIRERIPEALAGPPNDFGLFLSDDDPKKGIWLEAGKALDYYMLRNGDTMEYRKKQRPLKIRMLDGTVKTIMVDDSKTVTDMLMTICARIGITNHDEYSLVRELMEEKKDEGTGTLRKDKTLLRDEKKMEKLKQKLHTDDELNWLDHGRTLREQGVEEHETLLLRRKFFYSDQNVDSRDPVQLNLLYVQARDDILNGSHPVSFDKACEFAGFQCQIQFGPHNEQKHKAGFLDLKDFLPKEYVKQKGERKIFQAHKNCGQMSEIEAKVRYVKLARSLKTYGVSFFLVKEKMKGKNKLVPRLLGITKECVMRVDEKTKEVIQEWSLTNIKRWAASPKSFTLDFGDYQDGYYSVQTTEGEQIAQLIAGYIDIILKKKKSKDHFGLEGDEESTMLEDSVSPKKSTVLQ
Broadly, the Kd is the concentration at which binding is half-saturated. For the molecule B1, the dissociation constant Kd with GST-Tiam1-PDZ4 was approximately 430 nM.

Values taken from publication PMC3471226 (The Journal of Cell Biology, 2012).
